Test results reported in patent US20160168251A1 (MorphoSys, published 2016).

Experiments:
[1] = molecular target: T1, human NPRB on HEK293 cells, without added ligand (human, UniProt P20594 23-1047); assay: FACS, HEK NPRB cells without ligand
T1 construct: whole, on cells; also called HEK NPRB cells; natriuretic peptide receptor B
T1 sequence (looked up): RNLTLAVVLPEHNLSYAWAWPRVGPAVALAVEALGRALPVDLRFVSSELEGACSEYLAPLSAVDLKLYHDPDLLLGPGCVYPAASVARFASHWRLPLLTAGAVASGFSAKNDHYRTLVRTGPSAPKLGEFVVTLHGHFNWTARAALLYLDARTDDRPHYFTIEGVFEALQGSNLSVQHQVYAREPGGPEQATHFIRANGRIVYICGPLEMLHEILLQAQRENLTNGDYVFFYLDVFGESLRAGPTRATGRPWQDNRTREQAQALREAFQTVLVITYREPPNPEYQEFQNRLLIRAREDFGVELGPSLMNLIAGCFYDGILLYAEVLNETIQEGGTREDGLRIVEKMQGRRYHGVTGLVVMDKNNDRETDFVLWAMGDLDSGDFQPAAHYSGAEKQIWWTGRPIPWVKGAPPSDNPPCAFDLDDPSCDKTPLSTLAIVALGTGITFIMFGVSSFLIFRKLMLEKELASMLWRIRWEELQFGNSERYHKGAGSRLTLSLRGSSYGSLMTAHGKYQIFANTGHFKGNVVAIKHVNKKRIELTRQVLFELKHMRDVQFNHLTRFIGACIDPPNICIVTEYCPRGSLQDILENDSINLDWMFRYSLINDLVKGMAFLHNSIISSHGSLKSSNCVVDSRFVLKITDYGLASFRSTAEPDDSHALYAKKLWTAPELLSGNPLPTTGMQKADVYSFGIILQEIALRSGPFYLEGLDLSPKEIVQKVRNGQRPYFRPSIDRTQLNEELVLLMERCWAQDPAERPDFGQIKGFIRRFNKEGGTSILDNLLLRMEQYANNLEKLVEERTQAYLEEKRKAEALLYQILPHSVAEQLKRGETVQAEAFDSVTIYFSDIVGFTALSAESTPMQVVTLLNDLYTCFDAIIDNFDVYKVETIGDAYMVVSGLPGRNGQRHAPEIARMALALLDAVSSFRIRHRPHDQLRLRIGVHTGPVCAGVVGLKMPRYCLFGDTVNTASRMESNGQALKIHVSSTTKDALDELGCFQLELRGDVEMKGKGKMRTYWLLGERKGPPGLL
Method: (§1) HEK NPRA cells are detached with Accutase (PAA Laboratories GmbH, Cat. No. L11-007, Austria), harvested by centrifugation (900 rpm, 4 minutes) and resuspended in FACS buffer (PBS/3% FCS/0.02% NaN3) to a final concentration of 10⁶ cells/ml. 100 μl of the cell suspension is transferred to each well of a 96 round bottom plate (TC Microwell 96U, Nunc). […] Cells are washed in 150 μl of FACS buffer, pelleted and resuspended in 50 μl of the solution containing the primary antibody comprising a BEL extract of Fabs, a diluted BEL extract or purified antibody diluted in FACS buffer and incubated on ice for 30 min. Cells are washed again in FACS buffer and resuspended in 50 μl of FACS buffer containing the secondary antibody (R-Phycoerythrin-conjugated Affipure F(ab′)₂ Fragment Goat Anti-Human IgG, Dianova) and incubated on ice for 45 min. Cells are washed twice with FACS buffer and resuspended in 200 μl of FACS buffer for analysis in the FACS Array (BD Biosciences).

[2] = molecular target: T2, human NPRA on HEK293 cells, without added ligand (human, UniProt P16066 33-1061); assay: FACS, HEK NPRA cells without ligand
T2 construct: a signal peptide is not delimited; also called HEK NPRA cells; HEK hNPRA cells
T2 sequence: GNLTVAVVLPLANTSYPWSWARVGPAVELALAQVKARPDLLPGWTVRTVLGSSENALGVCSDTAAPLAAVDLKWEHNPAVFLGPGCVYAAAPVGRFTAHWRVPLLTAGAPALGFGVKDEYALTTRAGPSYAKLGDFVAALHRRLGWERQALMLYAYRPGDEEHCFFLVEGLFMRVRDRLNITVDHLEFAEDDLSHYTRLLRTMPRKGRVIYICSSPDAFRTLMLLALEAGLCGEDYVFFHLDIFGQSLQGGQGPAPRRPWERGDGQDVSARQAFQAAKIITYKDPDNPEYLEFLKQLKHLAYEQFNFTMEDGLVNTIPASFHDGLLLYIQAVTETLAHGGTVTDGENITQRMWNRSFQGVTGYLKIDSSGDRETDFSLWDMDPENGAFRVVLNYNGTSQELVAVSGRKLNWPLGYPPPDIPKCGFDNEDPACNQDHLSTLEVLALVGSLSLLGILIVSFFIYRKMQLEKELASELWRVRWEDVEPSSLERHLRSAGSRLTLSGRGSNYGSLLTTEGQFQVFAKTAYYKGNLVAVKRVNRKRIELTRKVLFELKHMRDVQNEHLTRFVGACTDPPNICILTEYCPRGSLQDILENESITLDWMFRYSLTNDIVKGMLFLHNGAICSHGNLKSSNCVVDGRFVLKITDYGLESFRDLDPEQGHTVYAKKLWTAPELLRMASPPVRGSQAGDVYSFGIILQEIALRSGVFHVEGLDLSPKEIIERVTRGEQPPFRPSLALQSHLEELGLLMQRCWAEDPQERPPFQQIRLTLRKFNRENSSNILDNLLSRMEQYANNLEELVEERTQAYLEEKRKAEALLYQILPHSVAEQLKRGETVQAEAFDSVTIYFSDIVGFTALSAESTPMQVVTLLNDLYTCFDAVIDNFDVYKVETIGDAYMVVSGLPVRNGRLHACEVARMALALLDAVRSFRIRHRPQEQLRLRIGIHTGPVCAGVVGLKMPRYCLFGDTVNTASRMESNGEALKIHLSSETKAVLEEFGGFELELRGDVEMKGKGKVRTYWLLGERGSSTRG
Method: as §1

[3] = molecular target: T3, human NPRB on HEK293 cells in the presence of CNP (human, UniProt P20594 23-1047; P23582 105-126); assay: FACS, HEK NPRB cells with 100 nM CNP
T3 construct: whole, on cells;mature; also called HEK NPRB cells + 100 nM CNP
T3 sequence (P23582 105-126 limits assumed, chain 2 of 2, one chain of several): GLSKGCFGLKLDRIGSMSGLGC
Method: as §1

Measured: binding result

B1: 5592 IgG4_Pro (antibody, V domains shown)
VH: QVQLQQSGPGLVKPSQTLSLTCAISGDSVSSRSASWSWIRQSPGRGLEWLGRTYYRSHWYYEYAQSVKSRITINPDTSKNQFSLQLNSVTPEDTAVYYCARMDVPSFRYFDVWGQGTLVTVSS
VL: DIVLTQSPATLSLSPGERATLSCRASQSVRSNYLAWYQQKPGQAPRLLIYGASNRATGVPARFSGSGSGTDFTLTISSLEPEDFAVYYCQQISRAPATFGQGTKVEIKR
no binding (tested: 20 nM): [1] | [2] | [3]

B2: 5591 IgG4_Pro (antibody, V domains shown)
VH: QVQLQQSGPGLVKPSQTLSLTCAISGDSVSSRSASWSWIRQSPGRGLEWLGRTYYRSHWYYEYAQSVKSRITINPDTSKNQFSLQLNSVTPEDTAVYYCARMDVPSFRYFDVWGQGTLVTVSS
VL: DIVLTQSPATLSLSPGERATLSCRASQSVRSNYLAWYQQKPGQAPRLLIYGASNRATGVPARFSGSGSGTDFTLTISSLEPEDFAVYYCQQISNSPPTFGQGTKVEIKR
no binding (tested: 20 nM): [1] | [2] | [3]
